Values quoted from earlier work, collected in patent publication US11419917B2, “Treatment for SARS-CoV-2 and other coronaviruses” (priority 2020, dated 2022).
“Also recorded” adds a separate entry of the source. Read-outs that look alike come from different tables or passages of the source.

Key:
[1] = in vivo
[2] = patients treated for 3 days compared to placebo

Compound | half-life [1] | half-life ([1]; listed as B-type NP) | decrease in infarct size [2]
BNP: B-type natriuretic peptide, a 32-amino acid peptide; generic name Nesiritide | 22 min | 20 min | 
ANP: A-type natriuretic peptide, a 28-amino acid peptide degraded from pro ANP | approximately 10 minutes; also recorded: several |  | 
CC[C@H](C)[C@@H]1NC(=O)[C@H](CCCNC(=N)N)NC(=O)[C@H](CC(=O)O)NC(=O)[C@H](CCSC)NC(=O)[C@H](CCCNC(=N)N)NC(=O)CNC(=O)CNC(=O)[C@H](Cc2ccccc2)NC(=O)[C@@H](NC(=O)[C@H](CO)NC(=O)[C@H](CO)NC(=O)[C@H](CCCNC(=N)N)NC(=O)[C@H](CCCNC(=N)N)NC(=O)[C@H](CC(C)C)NC(=O)[C@@H](N)CO)CSSC[C@@H](C(=O)N[C@@H](CC(N)=O)C(=O)N[C@@H](CO)C(=O)N[C@@H](Cc2ccccc2)C(=O)N[C@@H](CCCNC(=N)N)C(=O)N[C@@H](Cc2ccc(O)cc2)C(=O)O)NC(=O)CNC(=O)[C@H](CC(C)C)NC(=O)CNC(=O)[C@H](CO)NC(=O)[C@H](CCC(N)=O)NC(=O)[C@H](C)NC(=O)CNC1=O [Carperitide] |  |  | ~15%
